In PMC5371411 one finds Kd data, which are given here for one substance.

The assay has as its target His-EspC (enteropathogenic Escherichia coli (EPEC)) (UniProt Q9EZE7). Description: SPR; His-EspC coupled by its His tag and EDC-NHS on a nickel-nitrilotriacetic acid sensor slide; His-EspA or His-EspA/His-EspD perfused in PBST at 50 µl/min; Reichert SR7500DC. On the technique in general: SPR reads the build-up and loss of mass on a sensor chip optically.

In general, Kd refers to the constant that tells how readily two partners part at equilibrium. Lower therefore signals a tighter complex. The substance “His-EspA/His-EspD complex (from UniProt Q47184 1-192)” gave a Kd of 24.8 nM.
